{"source": "paper PMC3577887", "about": "“Multiple Consequences of a Single Amino Acid Pathogenic RTK Mutation: The A391E Mutation in FGFR3” (PLoS ONE, 2013)", "proteins": {"B1": {"name": "FGFR3 carrying the A391E mutation (Crouzon syndrome with Acanthosis Nigricans) (receptor)", "chain": "ESLGTEQRVVGRAAEVPGPEPGQQEQLVFGSGDAVELSCPPPGGGPMGPTVWVKDGTGLVPSERVLVGPQRLQVLNASHEDSGAYSCRQRLTQRVLCHFSVRVTDAPSSGDDEDGEDEAEDTGVDTGAPYWTRPERMDKKLLAVPAANTVRFRCPAAGNPTPSISWLKNGREFRGEHRIGGIKLRHQQWSLVMESVVPSDRGNYTCVVENKFGSIRQTYTLDVLERSPHRPILQAGLPANQTAVLGSDVEFHCKVYSDAQPHIQWLKHVEVNGSKVGPDGTPYVTVLKTAGANTTDKELEVLSLHNVTFEDAGEYTCLAGNSIGFSHHSAWLVVLPAEEELVEADEAGSVYAGILSYGVGFFLFILVVEAVTLCRLRSPPKKGLGSPTVHKISRFPLKRQVSLESNASMSSNTPLVRIARLSSGEGPTLANVSELELPADPKWELSRARLTLGKPLGEGCFGQVVMAEAIGIDKDRAAKPVTVAVKMLKDDATDKDLSDLVSEMEMMKMIGKHKNIINLLGACTQGGPLYVLVEYAAKGNLREFLRARRPPGLDYSFDTCKPPEEQLTFKDLVSCAYQVARGMEYLASQKCIHRDLAARNVLVTEDNVMKIADFGLARDVHNLDYYKKTTNGRLPVKWMAPEALFDRVYTHQSDVWSFGVLLWEIFTLGGSPYPGIPVEELFKLLKEGHRMDKPANCTHDLYMIMRECWHAAPSQRPTFKQLVEDLDRVLTVTSTDEYLDLSAPFEQYSPGGQDTPSSSSSGDDSVFAHDLLPPAPPSSGGSRT", "notes": "fibroblast growth factor receptor 3, human, with the pathogenic transmembrane-domain mutation A391E; full-length receptor; the mature 130 kDa form in the plasma membrane was quantified; Made from the FGFR3/WT plasmid by site-directed mutagenesis; the mutation occurs in patients; also called FGFR3/A391E; A391E mutant; source: HEK 293 T, transiently transfected (pcDNA 3.1+, Fugene 6), on cells"}}, "molecular_target": "the molecule itself", "assay": "cross-linking; 2 mM BS3 (membrane-impermeable) on starved HEK 293 T cells transfected with 1 µg DNA, room temperature, no ligand; Western blot with anti-FGFR3; cross-linked fraction SD/(SM+SD) with the 130 kDa monomer band", "data": [{"protein": "B1", "values": [{"measurement": "stoichiometry N", "value": 2}]}]}
